Substitutions are numbered along the chain they refer to. “And” between values parts separate entries of the source, which are not always exact repeats. Identical values can stand only once.

The target of experiment [1] is T1, biotinylated native human ApoC3 (human, UniProt P02656 21-99, biotinylated (site not stated)).
T1 construct: also called biotinylated human ApoC3
Nature of the experiment: SPR, IgG1 over biotinylated ApoC3 on SA chip, pH 5.5. The method, boiled down: (§1)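 Biotinylated native human ApoC3 was captured on a streptavidin chip (~500 RU), and IgG1 at 1-50 nM was injected in HBS-EP at pH 7.4, or at pH 5.5 with 10 mM citrate added. Dissociation was followed for 5 min. Double-referenced sensorgrams were fit to a 1:1 Langmuir model, and fits were considered not applicable when kd was below 1×10⁻⁶ 1/s.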
(In general: SPR reads the build-up and loss of mass on a sensor chip optically.)

Experiment [2] addresses T1, biotinylated native human ApoC3. Nature of the experiment: SPR, IgG1 over biotinylated ApoC3 on SA chip. The method, boiled down:
as §1

Experiment [3] has as its target T2, native human ApoC3 (human, UniProt P02656 21-99).
T2 construct: also called nhuApoC3; native huApoC3
Nature of the experiment: SPR, ApoC3 over captured IgG1, pH 7.4; pH 7.4; ApoC3 600-50 nM over immobilized antibody. On the procedure: An inverted SPR assay was designed in which a test antibody was captured on an SPR chip, human ApoC3 protein was injected, and binding of ApoC3 to the antibody was measured. […] The immobilization was performed in accordance with the method provided by Biacore/GE using the NHS/EDC kit (Biacore AB, Cat.nr. BR-1000-50): after activation of the chip, a solution of 30 μg/ml of anti-human Fcγ antibody in 10 mM acetate buffer with pH of 5.0 was prepared and injected until the surface density reached approximately 10000 RU. The analytical cycle comprised the following steps:
The resulting sensorgrams were analyzed using the BIAevaluation 4.1 software using Langmuir 1:1 binding model to derive binding kinetics. Data was zero adjusted, the reference cell sensorgrams were subtracted and the no analyte blank assay was used for double referencing the sensorgrams corresponding to the analyte injections. The dissociation and association phase sensorgrams were fitted separately for the 4 different concentration curves. Sensorgrams were excluded from the fitting if maximum RU values reached were below the detection limit of the equipment (<5 RU), Biacore 3000 (Biacore AB).

In experiment [4] the target is T1, biotinylated native human ApoC3. Kind of experiment: SPR, IgG1 over biotinylated ApoC3 on SA chip, pH 7.4. In a few lines: as §1
Experiment [5] shares this target. Nature of the experiment: SPR, scFv-Fc over biotinylated ApoC3 on SA chip, pH 5.5.
Experiment [6] has the same target. Nature of the experiment: SPR, scFv-Fc over biotinylated ApoC3 on SA chip, pH 7.4.
Experiment [7] shares this target. Kind of experiment: SPR, scFv-Fc over biotinylated ApoC3 on SA chip.
Experiment [8] shares this target. Kind of experiment: SPR, IgG1 over biotinylated ApoC3 on SA chip, pH 7.4; pH 7.4; native ApoC3 on CM5 chip.
For experiment [9] the target is unchanged. Kind of experiment: SPR, IgG1 over biotinylated ApoC3 on SA chip, pH 5.5; pH 5.5.
In experiment [10] the target is T2, native human ApoC3. Kind of experiment: SPR, IgG1 over ApoC3 on CM5 chip, pH 7.4. On the procedure: (§2) Based on the results in Example 1, test scFv-Fc antibodies were generated as human IgG₁ antibodies. An SPR-based assay was employed, in which human ApoC3 protein was immobilized on a CM5 chip, and the binding kinetics of test antibodies to the coated chip were measured at both pH 7.4 and pH 5.5. Briefly, a solution of 50 μg/ml of native human ApoC3 in 10 mM acetate buffer at pH 4.5 was prepared and injected until the surface density reached approximately 500 RU. 60 μl of each test antibody was diluted in HBS-EP buffer (GE, cat. nr. BR-1008-26; 0.010 M HEPES, 0.150M NaCl, 3 mM EDTA, 0.05% (v/v) surfactant P20, pH 7.4), and was injected at a concentration as described in Table 9. The test antibodies were passed through the flow cells at a flow rate of 30 μl/min, followed by an off-rate wash at pH 7.4 or pH 5.5 for 5 min. The resulting sensorgrams were analyzed using the BIAevaluation 4.1 software applying the Langmuir 1:1 binding model to derive binding kinetics. Data was zero adjusted and the reference cell sensorgrams were subtracted.

In experiment [11] the target is T2, native human ApoC3. Nature of the experiment: SPR, IgG1 over ApoC3 on CM5 chip, pH 5.5. On the procedure:
as §2

For experiment [12], the target named is T2, native human ApoC3. Nature of the experiment: SPR, IgG1 over ApoC3 on CM5 chip, pH 7.4; pH 7.4; IgG1 over native ApoC3 on CM5 chip. The procedure: as §2
The target in experiment [13] is T1, biotinylated native human ApoC3. Nature of the experiment: SPR, IgG1 over biotinylated ApoC3 on SA chip, pH 7.4; pH 7.4. On the procedure: Biotinylated native human ApoC3 was captured on a streptavidin coated SPR chip (GE Healthcare, cat. nr. BR100032) at pH 7.4, in accordance with the method provided by Biacore, by injection of 20 μl 10 μg/ml biotinylated native human ApoC3 reaching the surface density of approximately 500 RU. 60 μL of test antibody in 1-50 nM range diluted in HBS-EP buffer (GE, cat # BR-1008-26; 0.010 M HEPES, 0.150M NaCl, 3 mM EDTA, 0.05% (v/v) surfactant P20, pH 7.4) was injected and passed through the flow cells at a flow rate of 30 μl/min, followed by an off-rate wash at pH7.4 for 5 min. After the dissociation, the flow cell surfaces were regenerated by injecting 10 μl of 10 mM NaOH/1 M NaCl and 10 μl of 10 mM glycine at pH1.5. The assay was repeated at pH5.5 using the same general protocol, where the running and sample dilution buffer was replaced by a HBS-EP buffer supplemented with citrate buffer to 10 mM final concentration and pH adjusted to 5.5.
The resulting sensorgrams were analyzed using the BIAevaluation 4.1 software using Langmuir 1:1 binding model to derive binding kinetics. Data was zero adjusted and the reference cell sensorgrams were subtracted. Sensorgrams were double referenced to no-analyte blank assay. Fitted parameters were considered not applicable if off-rate values were below the equipment's detection limit of kd: 1×10⁻⁶ 1/s.

T1 sequence (P02656 21-99): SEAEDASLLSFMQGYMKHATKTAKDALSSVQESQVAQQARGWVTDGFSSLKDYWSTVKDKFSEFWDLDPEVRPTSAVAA
T2 sequence (P02656 21-99): as above

B1: mAb14 (antibody, IgG1, V domains shown)
VH: QLLESGGGLVQPGGSLRLSCAASGFTFGTYSMRWVRQVPGKGLEWVSSIHTEGGGTAYRDSVKGRFTISRDNSKNTLYLQMNSLRAEDTAVYYCVIAGYSDWGQGTLVTVSS
VL: DIVMTQSPLSLPVTPGEPASISCKTSQGLVHSDGKTYFYWYLQKPGQSPQLLIYQVSNRASGVPDRFSGSGSGTDFTLKISRVEAEDVGVYYCAHGTYYPHTFGQGTRLEIK
notes: Produced as full length IgG1 (kappa) in ExpiCHO-S cells; CDR graft into the closest human germline frameworks; also called humanized anti-ApoC3 antibody mAb14; variant 14
For orientation: koff means a measure of how fast the partners let go of each other. A lower koff goes with a long-lived complex. As a reminder, the kon is the second-order rate constant of association. A lower kon goes with slower complex formation. For B1, in experiment [1], the Ka stood at 4.7e+07 M⁻¹, the koff was found to be 0.00788 s⁻¹ and the on-rate constant (kon) worked out at 370000 M⁻¹ s⁻¹. The “KD pH5.5/KD pH7.4” value in experiment [2] is 7.2. In the experiment with native human ApoC3 [3], the Ka worked out at 567000 M⁻¹, the koff worked out at 0.0458 s⁻¹ and the kon stood at 26000 M⁻¹ s⁻¹. In [4], this molecule had a Ka of 3.38e+08 M⁻¹, a koff of 0.000427 s⁻¹ and a kon of 144000 M⁻¹ s⁻¹.

B2: 5E5WT scFv-Fc (scFv, part only; not given: Linker, domain order, Fc, V domains shown, not shown: another chain or arm of the molecule; a dimerising Fc or GST; small tags and cut ends)
VH: QLQLVESGGGLVQPGGSLRLSCAASGFTFGTYSMRWVRQVPRKALEWVSSISTDGGGTAYRDSVKGRFTISRDNAKNTLYLQMNNLKPEDTAIYYCVIAGYSDWGQGTQVTVSS
VL: ATMLTQSPGSLSVVPGESASISCKTSQGLVHSDGKTYFYWFLQKPGQSPQQLIYQVSNRASGVPDRFTGSGSGTDFTLKISGVKAEDAGVYYCAQGTYYPHTFGSGTRLEIK
The term Kd denotes the constant that tells how readily two partners part at equilibrium. A higher Kd goes with a looser complex. As to B2, in experiment [5], the Kd was determined as 0.06 nM, the koff is 2.53e-05 s⁻¹ and the kon worked out at 393000 M⁻¹ s⁻¹. Also, in experiment [6], the dissociation constant Kd came out at 0.02 nM, the off-rate constant (koff) was found to be 1.75e-05 s⁻¹ and the kon was 823000 M⁻¹ s⁻¹. In addition, the KD pH 5.5/KD pH 7.4 in experiment [7] was 3.

B3: 5E5VH5_VLWT scFv-Fc (scFv, part only; not given: Linker, domain order, Fc, V domains shown, not shown: another chain or arm of the molecule; a dimerising Fc or GST; small tags and cut ends)
VH: B2 VH with S52H
VL: B2 VL
As to B3, in experiment [5], the koff amounted to 0.0016 s⁻¹ and the on-rate (kon) was found to be 147000 M⁻¹ s⁻¹. In experiment [6], this molecule displayed a Kd of 0.59 nM, a dissociation rate constant (koff) of 0.000105 s⁻¹ and a kon of 178000 M⁻¹ s⁻¹. Moreover, the KD pH 5.5/KD pH 7.4 in [7] was 18.5.

B4: 5E5VHWT_VL8 scFv-Fc (scFv, part only; not given: Linker, domain order, Fc, V domains shown, not shown: another chain or arm of the molecule; a dimerising Fc or GST; small tags and cut ends)
VH: B2 VH
VL: B2 VL with Q95H
Regarding B4, in experiment [5], the dissociation rate constant (koff) is 0.00116 s⁻¹ and the kon amounted to 269000 M⁻¹ s⁻¹. In experiment [6], this molecule registered an equilibrium dissociation constant (Kd) of 0.58 nM, a dissociation rate constant (koff) of 0.000221 s⁻¹ and an on-rate constant (kon) of 381000 M⁻¹ s⁻¹. For the same molecule, the KD pH 5.5/KD pH 7.4 in experiment [7] amounted to 7.4.

B5: 5E5VH12_VLWT scFv-Fc (scFv, part only; not given: Linker, domain order, Fc, V domains shown, not shown: another chain or arm of the molecule; a dimerising Fc or GST; small tags and cut ends)
VH: B2 VH with A99H
VL: B2 VL
Consider B5, for which, in [5], the equilibrium dissociation constant (Kd) came out at 16 nM, the koff was found to be 0.00206 s⁻¹ and the kon came to 129000 M⁻¹ s⁻¹. In experiment [6], this molecule displayed a Kd of 0.51 nM, a koff of 0.000157 s⁻¹ and an on-rate (kon) of 308000 M⁻¹ s⁻¹. In addition, the KD pH 5.5/KD pH 7.4 in experiment [7] was found to be 31.4.

B6: 5E5WT human IgG1 (antibody, V domains shown)
VH: B2 VH
VL: B2 VL
As for B6, the kon in experiment [8] amounted to 350000 M⁻¹ s⁻¹; in experiment [1], 340000 M⁻¹ s⁻¹; in the experiment with native human ApoC3 [10] it was 350000 M⁻¹ s⁻¹; with native human ApoC3 [11], 340000 M⁻¹ s⁻¹. Further, the Kd in experiment [1] and in [4] was 0.05 nM throughout. For the same molecule, the off-rate constant (koff) in experiment [1] stood at 1.7e-05 s⁻¹; in the experiment with native human ApoC3 [10], 1.79e-05 s⁻¹; in experiment [4], 1.79e-05 s⁻¹; in the experiment with native human ApoC3 [11] it was 1.7e-05 s⁻¹. In addition, in experiment [2], the “KD pH5.5/KD pH7.4” value was found to be 0.97. The Ka in experiment [9] stood at 2.01e+10 M⁻¹; in experiment [4], 1.95e+10 M⁻¹.

B7: 5E5VH5VH12_VL8 human IgG1 (antibody, V domains shown)
VH: B2 VH with S52H, A99H
VL: B2 VL with Q95H
In the experiment with native human ApoC3 [12], B7 returned a dissociation rate constant (koff) of 0.0028 s⁻¹ and a kon of 125000 M⁻¹ s⁻¹.

B8: 5E5VH12_VLWT human IgG1 (antibody, V domains shown)
VH: B2 VH with A99H
VL: B2 VL
Consider B8, for which the Ka in experiment [1] was found to be 2.12e+09 M⁻¹; in experiment [13], 5.84e+10 M⁻¹. The dissociation constant Kd was 0.472 nM and 0.47 nM in experiment [1]; 0.0171 nM and 0.02 nM in experiment [4]. For the same molecule, the koff in experiment [1] was determined as 0.000143 s⁻¹; in the experiment with native human ApoC3 [10], 1.38e-05 s⁻¹; in experiment [4], 1.12e-05 s⁻¹; with native human ApoC3 [11] it was 0.000374 s⁻¹. The kon in experiment [1] is 302000 M⁻¹ s⁻¹; in the experiment with native human ApoC3 [10], 393000 M⁻¹ s⁻¹; in experiment [4], 656000 M⁻¹ s⁻¹; with native human ApoC3 [11], 366000 M⁻¹ s⁻¹. In [2], the “KD pH5.5/KD pH7.4” value worked out at 27.6.

For the origin of these results see patent US20200239555A1 (STATEN BIOTECHNOLOGY B V, published 2020).
